From paper PMC5382158 (Frontiers in Cellular and Infection Microbiology, 2017)

Assays:
Assay in all cases: two-hybrid
[1] = target: NarI-T18 (M. tuberculosis)
[2] = target: T1, NarK2-T18 (M. tuberculosis, UniProt P9WJY7 1-395); conditions: partners not purified
T1 sequence: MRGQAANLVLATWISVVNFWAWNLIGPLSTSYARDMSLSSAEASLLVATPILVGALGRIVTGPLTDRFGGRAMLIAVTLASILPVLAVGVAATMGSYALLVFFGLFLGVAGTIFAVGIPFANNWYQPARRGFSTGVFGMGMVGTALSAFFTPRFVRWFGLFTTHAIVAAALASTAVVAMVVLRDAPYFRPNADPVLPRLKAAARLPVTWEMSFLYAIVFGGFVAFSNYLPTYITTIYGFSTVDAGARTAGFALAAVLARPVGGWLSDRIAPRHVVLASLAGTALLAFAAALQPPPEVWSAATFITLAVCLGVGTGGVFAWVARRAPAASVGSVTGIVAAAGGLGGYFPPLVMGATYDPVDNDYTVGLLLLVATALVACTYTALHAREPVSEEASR

[3] = target: T2, Rv2617c-T18 (M. tuberculosis, UniProt I6XER9 1-146); conditions: partners not purified
T2 sequence: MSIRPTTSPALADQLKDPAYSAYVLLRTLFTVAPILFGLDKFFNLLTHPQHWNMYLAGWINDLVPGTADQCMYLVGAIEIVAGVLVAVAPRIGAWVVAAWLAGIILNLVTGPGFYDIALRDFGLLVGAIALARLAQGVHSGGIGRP

Row | Molecule | β-galactosidase activity [1] [Miller units] | β-galactosidase activity [2] [Miller units] | β-galactosidase activity [3] [Miller units]
1 | KdpF-T25 (peptide) | 720 | – | –
2 | MTTVDNIVGLVIAVALMAFLFAALLFPEKF [KdpF-T25] | – | 868 | 1870
